Laboratory results: article PMC5839991 (Nature structural & molecular biology, 2018)

Legend:
[1] = biological target: recombinant human serum albumin from S. cerevisiae, biotin labeled (Homo sapiens, UniProt P02768, biotin (EZ-Link NHS-PEG4-Biotin)); test: SPR
[2] = biological target: mouse serum albumin, biotin labeled (Mus musculus, UniProt P07724, biotin (EZ-Link NHS-PEG4-Biotin)); test: SPR
mouse serum albumin, biotin labeled, sequence (P07724 25-608): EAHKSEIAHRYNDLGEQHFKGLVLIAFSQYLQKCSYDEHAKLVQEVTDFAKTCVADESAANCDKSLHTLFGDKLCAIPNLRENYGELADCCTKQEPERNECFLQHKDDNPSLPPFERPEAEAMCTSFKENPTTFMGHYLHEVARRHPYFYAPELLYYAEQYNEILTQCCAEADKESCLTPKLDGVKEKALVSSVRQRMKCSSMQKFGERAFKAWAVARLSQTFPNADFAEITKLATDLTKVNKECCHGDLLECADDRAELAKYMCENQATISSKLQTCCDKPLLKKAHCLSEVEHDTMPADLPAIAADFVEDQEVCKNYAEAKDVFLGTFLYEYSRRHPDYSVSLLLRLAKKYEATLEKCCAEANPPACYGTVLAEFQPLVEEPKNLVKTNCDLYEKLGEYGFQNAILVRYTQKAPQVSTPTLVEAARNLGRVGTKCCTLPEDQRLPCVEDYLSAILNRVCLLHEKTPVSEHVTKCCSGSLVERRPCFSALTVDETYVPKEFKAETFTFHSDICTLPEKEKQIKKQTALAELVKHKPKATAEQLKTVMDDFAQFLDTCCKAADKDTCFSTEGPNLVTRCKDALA

B1: Nb.b201 (VHH)
VHH: QVQLQESGGGLVQAGGSLRLSCAASGYISDAYYMGWYRQAPGKEREFVATITHGTNTYYADSVKGRFTISRDNAKNTVYLQMNSLKPEDTAVYYCAVLETRSYSFRYWGQGTQVTVSS
Kd [1]: 430 nM | binding result [2]: no binding
